Assay results reported in article PMC6486548, “Structure, dynamics and roX2-lncRNA binding of tandem double-stranded RNA binding domains dsRBD1,2 of Drosophila helicase Maleless”.

Tests used:
[1] = target: T1, MLE dsRBD1,2 (UniProt P24785 1-257); assay: NMR titration; severe line broadening; Filter binding: 20 mM HEPES/NaOH pH 8.0, 150 mM NaCl, 5 mM MgCl2, on ice; ITC: 10 mM HEPES pH 8.0, 75 mM NaCl, 2.5 mM MgCl2, 1 mM b-mercaptoethanol, 20 C; NMR:; conditions: protein: recombinant, tags: N-terminal His6 removed by TEV
[2] = target: T2, MLE dsRBD2 (UniProt P24785 155-257); assay: ITC; n=0.93; Filter binding: 20 mM HEPES/NaOH pH 8.0, 150 mM NaCl, 5 mM MgCl2, on ice; ITC: 10 mM HEPES pH 8.0, 75 mM NaCl, 2.5 mM MgCl2, 1 mM b-mercaptoethanol, 20 C; NMR:; conditions: protein: recombinant; tags: N-terminal His6 removed by TEV; hairpin
[3] = target: T1, MLE dsRBD1,2; assay: ITC; n=0.95; Filter binding: 20 mM HEPES/NaOH pH 8.0, 150 mM NaCl, 5 mM MgCl2, on ice; ITC: 10 mM HEPES pH 8.0, 75 mM NaCl, 2.5 mM MgCl2, 1 mM b-mercaptoethanol, 20 C; NMR:; conditions: protein: recombinant; tags: N-terminal His6 removed by TEV; hairpin
[4] = target: T2, MLE dsRBD2; assay: filter binding; 5 mM Mg2+; Filter binding: 20 mM HEPES/NaOH pH 8.0, 150 mM NaCl, 5 mM MgCl2, on ice; ITC: 10 mM HEPES pH 8.0, 75 mM NaCl, 2.5 mM MgCl2, 1 mM b-mercaptoethanol, 20 C; NMR:; conditions: protein: recombinant; tags: N-terminal His6 removed by TEV; hairpin
[5] = target: T1, MLE dsRBD1,2; assay: as above; conditions: protein: recombinant; tags: N-terminal His6 removed by TEV; hairpin
[6] = target: MLE dsRBD1,2 linker deletion (UniProt P24785 1-257, del85-140); assay: filter binding; affinity similar to dsRBD1,2; Filter binding: 20 mM HEPES/NaOH pH 8.0, 150 mM NaCl, 5 mM MgCl2, on ice; ITC: 10 mM HEPES pH 8.0, 75 mM NaCl, 2.5 mM MgCl2, 1 mM b-mercaptoethanol, 20 C; NMR:; conditions: protein: recombinant; tags: N-terminal His6 removed by TEV; hairpin
[7] = target: T2, MLE dsRBD2; assay: ITC; n=0.70; Filter binding: 20 mM HEPES/NaOH pH 8.0, 150 mM NaCl, 5 mM MgCl2, on ice; ITC: 10 mM HEPES pH 8.0, 75 mM NaCl, 2.5 mM MgCl2, 1 mM b-mercaptoethanol, 20 C; NMR:; conditions: protein: recombinant; tags: N-terminal His6 removed by TEV; blunt, internal A-C mismatch and G-U pairs
[8] = target: MLE dsRBD1 K53E (UniProt P24785 1-84, K53E); assay: NMR titration; 1.3x RNA; Filter binding: 20 mM HEPES/NaOH pH 8.0, 150 mM NaCl, 5 mM MgCl2, on ice; ITC: 10 mM HEPES pH 8.0, 75 mM NaCl, 2.5 mM MgCl2, 1 mM b-mercaptoethanol, 20 C; NMR:; conditions: protein: recombinant; tags: N-terminal His6 removed by TEV; blunt, internal A-C mismatch and G-U pairs
[9] = target: MLE dsRBD1 K53+54E (UniProt P24785 1-84, K53E;K54E); assay: as above; conditions: protein: recombinant; tags: N-terminal His6 removed by TEV; blunt, internal A-C mismatch and G-U pairs
[10] = target: MLE dsRBD1 K54E (UniProt P24785 1-84, K54E); assay: as above; conditions: protein: recombinant; tags: N-terminal His6 removed by TEV; blunt, internal A-C mismatch and G-U pairs
[11] = target: MLE dsRBD1 (UniProt P24785 1-84); assay: NMR titration; Filter binding: 20 mM HEPES/NaOH pH 8.0, 150 mM NaCl, 5 mM MgCl2, on ice; ITC: 10 mM HEPES pH 8.0, 75 mM NaCl, 2.5 mM MgCl2, 1 mM b-mercaptoethanol, 20 C; NMR:; conditions: protein: recombinant; tags: N-terminal His6 removed by TEV; blunt, internal A-C mismatch and G-U pairs
[12] = target: T2, MLE dsRBD2; assay: as above; conditions: protein: recombinant; tags: N-terminal His6 removed by TEV; blunt, internal A-C mismatch and G-U pairs
[13] = target: T1, MLE dsRBD1,2; assay: ITC; n=0.84; Filter binding: 20 mM HEPES/NaOH pH 8.0, 150 mM NaCl, 5 mM MgCl2, on ice; ITC: 10 mM HEPES pH 8.0, 75 mM NaCl, 2.5 mM MgCl2, 1 mM b-mercaptoethanol, 20 C; NMR:; conditions: protein: recombinant; tags: N-terminal His6 removed by TEV; blunt, internal A-C mismatch and G-U pairs

B1: SL7 23mer duplex (dsRNA)
RNA 1: UUAAAAGACGUGUAAAAUGUUGC
RNA 2: GUAACGUUUUACGCGCCUUUUCC
binding result ([1]; 23 + 23 nt, terminal U-C mismatches, internal A-C mismatch): binds

GUGUAAAAUGUUGCAAUAUAUAGUAACGUUUUACGC (structured_RNA) [SL7 14merLoop]
Kd [2]: 5.92 ± 1.31 µM
Kd [3]: 4.66 ± 0.71 µM
Kd [4]: ~22 µM
Kd [5]: 6.8 µM
binding result [6]: binds

B2: SL7 18mer duplex (dsRNA)
RNA 1: AGACGUGUAAAAUGUUGC
RNA 2: GUAACGUUUUACGCGCCU
Kd [7]: 2.71 ± 0.19 µM
binding result [8]: no binding
binding result [9]: no binding
binding result [10]: no binding
Kd [11]: ~470 µM
Kd [12]: ~33 µM
Kd [13]: 3.18 ± 0.48 µM

B3: UR23mer (dsRNA)
RNA 1: UAAAGUGCUUAUAGUGCAGGUAG
RNA 2: ACCUGCACUAUAAGCACUUUAAG
binding result ([1]; 3' overhangs 2 nt on both ends): binds
